What was measured:
[1] = target: T1, Recombinant Mycobacterium tuberculosis HSP70 (Aalto, Eire) (Mycobacterium tuberculosis, UniProt P9WMJ9 1-625); assay: CHIEF gel
T1 construct: also called mtHSP70; Mycobacteria HSP70

[2] = target: E. coli orthologue, dnaK (E. coli, UniProt P0A6Y8 2-638); assay: CHIEF (counter HSP isoelectric focusing) gel
Sequence of E. coli orthologue, dnaK (P0A6Y8 2-638 limits assumed): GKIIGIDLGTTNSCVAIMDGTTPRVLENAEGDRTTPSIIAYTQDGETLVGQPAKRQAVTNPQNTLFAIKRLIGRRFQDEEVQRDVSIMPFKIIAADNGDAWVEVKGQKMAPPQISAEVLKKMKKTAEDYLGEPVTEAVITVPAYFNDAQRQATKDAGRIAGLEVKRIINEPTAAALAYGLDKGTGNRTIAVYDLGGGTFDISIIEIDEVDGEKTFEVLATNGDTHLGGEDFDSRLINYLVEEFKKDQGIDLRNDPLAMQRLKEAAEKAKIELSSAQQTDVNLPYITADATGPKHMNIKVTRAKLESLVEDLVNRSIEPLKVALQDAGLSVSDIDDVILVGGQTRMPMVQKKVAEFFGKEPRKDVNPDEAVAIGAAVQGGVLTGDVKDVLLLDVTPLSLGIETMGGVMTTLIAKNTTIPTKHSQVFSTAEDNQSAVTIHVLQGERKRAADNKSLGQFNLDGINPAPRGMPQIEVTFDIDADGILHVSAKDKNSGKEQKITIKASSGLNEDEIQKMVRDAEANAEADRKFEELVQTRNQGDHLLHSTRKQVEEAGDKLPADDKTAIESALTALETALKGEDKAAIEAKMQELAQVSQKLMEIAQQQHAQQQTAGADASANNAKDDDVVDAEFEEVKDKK

T1 sequence (P9WMJ9 whole entry): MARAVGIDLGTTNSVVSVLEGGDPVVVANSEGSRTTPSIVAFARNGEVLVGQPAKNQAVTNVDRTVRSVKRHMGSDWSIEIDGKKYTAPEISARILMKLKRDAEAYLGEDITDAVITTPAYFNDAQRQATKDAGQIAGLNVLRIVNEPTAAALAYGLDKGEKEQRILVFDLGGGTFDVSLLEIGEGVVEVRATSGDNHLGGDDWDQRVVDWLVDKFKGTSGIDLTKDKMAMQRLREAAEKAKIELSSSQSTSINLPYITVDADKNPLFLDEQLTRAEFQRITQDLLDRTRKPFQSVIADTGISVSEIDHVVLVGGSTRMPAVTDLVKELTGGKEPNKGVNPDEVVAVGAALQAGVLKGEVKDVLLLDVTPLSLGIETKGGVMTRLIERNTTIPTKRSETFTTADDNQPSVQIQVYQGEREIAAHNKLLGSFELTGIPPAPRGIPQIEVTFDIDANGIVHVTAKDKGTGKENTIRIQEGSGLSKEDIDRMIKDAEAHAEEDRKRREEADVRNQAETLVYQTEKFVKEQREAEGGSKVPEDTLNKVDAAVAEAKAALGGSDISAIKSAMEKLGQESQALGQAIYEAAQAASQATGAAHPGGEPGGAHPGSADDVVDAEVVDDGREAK

B1: bovine myelin basic protein (other, UniProt P02687 1-169, looked up)
chain: AAQKRPSQRSKYLASASTMDHARHGFLPRHRDTGILDSLGRFFGSDRGAPKRGSGKDGHHAARTTHYGSLPQKAQGHRPQDENPVVHFFKNIVTPRTPPPSQGKGRGLSLSRFSWGAEGQKPGFGYGGRASDYKSAHKGLKGHDAQGTLSKIFKLGGRDSRSGSPMARR
notes: also called bMBP; MBP
B1: binds [1]; no binding [2].

B2: MBP 62-78 peptide (peptide)
peptide: ARTTHYGSLPQKAQGHR
notes: range 62-78; Synthetic candidate peptide; also called MBP peptide 1 (62-78)
B2: no binding [1].

PSQGKGRGLSLSRFSWGA (Synthetic peptide (New England Peptide)) [bMBP 100-117 peptide]: binds [1].

Source: patent US20130243802A1 (ATLANTIC RESEARCH CENTER INSTITUTE, published 2013)
